{"source": "paper PMC6327041", "about": "(Nature Communications, 2019)", "biological_target": "T1, KDM5A1-797 (Homo sapiens, UniProt P29375)", "T1 construct": "KDM5A1-797 was cloned into a pFASTBAC HTA vector; His (N, cleaved yes); made in house; host or cells: Sf21 insect cells (baculovirus)", "T1 sequence (P29375 1-797)": "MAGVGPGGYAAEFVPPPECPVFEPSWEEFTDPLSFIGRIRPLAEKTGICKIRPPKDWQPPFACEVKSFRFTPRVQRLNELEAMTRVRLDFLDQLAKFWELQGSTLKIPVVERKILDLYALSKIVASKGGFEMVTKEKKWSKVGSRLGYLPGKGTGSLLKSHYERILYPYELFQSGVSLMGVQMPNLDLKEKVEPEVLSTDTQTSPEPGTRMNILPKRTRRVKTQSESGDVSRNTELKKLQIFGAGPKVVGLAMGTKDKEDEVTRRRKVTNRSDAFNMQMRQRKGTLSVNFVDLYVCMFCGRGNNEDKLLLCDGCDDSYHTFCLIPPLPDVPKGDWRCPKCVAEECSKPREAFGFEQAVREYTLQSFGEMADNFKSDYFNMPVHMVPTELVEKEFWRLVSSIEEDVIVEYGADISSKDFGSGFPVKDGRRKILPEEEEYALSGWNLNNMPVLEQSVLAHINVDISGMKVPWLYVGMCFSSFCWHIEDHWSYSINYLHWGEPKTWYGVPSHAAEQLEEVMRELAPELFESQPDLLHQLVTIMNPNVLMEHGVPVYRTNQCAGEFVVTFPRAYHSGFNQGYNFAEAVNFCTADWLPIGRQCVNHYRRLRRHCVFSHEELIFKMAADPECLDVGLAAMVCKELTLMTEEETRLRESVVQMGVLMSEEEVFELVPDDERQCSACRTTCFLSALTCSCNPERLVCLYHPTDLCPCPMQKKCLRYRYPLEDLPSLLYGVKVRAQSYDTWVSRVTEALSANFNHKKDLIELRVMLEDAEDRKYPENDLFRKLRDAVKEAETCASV", "experiment": "KDM5A demethylation, FDH-coupled formaldehyde release assay", "format": "biochemical", "details": "for kcat / Km: n ≥ 3, s.e.m.", "protocol": "WT KDM5A1-797 was expressed in Sf21 cells following Invitrogen Bac-to-Bac baculovirus expression system protocol. KDM5A1-797 was cloned into a pFASTBAC HTA vector. Purified bacmid was transfected in Sf21 cells. Approximately […] cells per well of a six-well dish were allowed to attach in 2 ml of SF-900 II SFM media containing 50 U ml^−1 penicillin and 50 μg ml^−1 streptomycin. While cells attached, 8 μl of Cellfectin II reagent (Invitrogen) in 100 μl of unsupplemented Grace’s medium was mixed with ~2–5 μg of bacmid in 100 μl of unsupplemented Grace’s medium and incubated for 15–30 min at 25 °C. Once cells were attached, media was removed and cells were washed with 2 ml of Grace’s unsupplemented media. The bacmid DNA:Cellfectin mixture was then diluted to 1 ml with Grace’s unsupplemented media and added to the well. Cells with bacmid:Cellfectin II mixture were incubated for 5 h at 27 °C. After 5 h of incubation, bacmid:Cellfectin mixture was removed and replaced with 2 ml of SF-900 II SFM 50 U ml^−1 penicillin and 50 μg ml^−1 streptomycin. Transfected cells were incubated 3–5 days or until signs of viral infection were observed. After transfection, the supernatant was spun down to remove the dead cells. The supernatant was then sterile filtered to obtain the P1 viral stock. To make P2, 20 ml of […] at ~2 × 10^6 cells per ml of sf21 was infected with 2 ml of P1 virus and incubated for 48–60 h. After 56 h, the cells were spun down and the supernatant was collected and sterile filtered to obtain P2 viral stock. Similarly, P3 viral stock from P2 viral stock was obtained. Generally, 1 l of Sf21 at 2 × 10^6 cells per ml was infected with ~40 ml of P3 virus for ~48–56 h. Cells were then collected and resuspended in the lysis buffer (25 mM HEPES pH 7.9, 350 mM NaCl, 5 mM KCl, 1.5 mM MgCl2, 10 mM imidazole, aprotinin 2 μg ml^−1, leupeptin 3 μg ml^−1, pepstatin 3 μg ml^−1, and 1 mM PMSF). Cells were homogenized by emulsiflex. After lysis, the supernatant was recovered by centrifuging at 35k r.p.m. for 45 min, and incubated with cobalt resin equilibrated in lysis buffer for 1 h at 4 °C. After incubation the resin was washed with wash buffer (25 mM HEPES, pH 7.9, 350 mM NaCl, 0.5 mM MgCl2, 10% glycerol, 10 mM imidazole, aprotinin 2 μg ml^−1, leupeptin 3 μg ml^−1, pepstatin 3 μg ml^−1, and 1 mM PMSF). His-KDM5A was eluted with elution buffer (25 mM HEPES pH 7.9, 100 mM NaCl, 0.5 mM MgCl2, 10% glycerol, 100 mM imidazole, aprotinin 2 μg ml^−1, leupeptin 3 μg ml^−1, pepstatin 3 μg ml^−1, and 1 mM PMSF). The His-tag was removed by overnight incubation with TEV protease at 4 °C in the dialysis buffer (25 mM HEPES, pH 7.9, 100 mM NaCl, and 2 mM DTT). After cleavage, protein was further purified by size-exclusion chromatography using a S200 column. Purified KDM5A was eluted, aliquoted and stored at −80 °C in 40 mM HEPES, pH 7.9, 50 mM KCl.\nMichaelis–Menten parameters were determined using Graphpad Prism.", "key": {"[1]": {"details": "38 µM H3 10mer effector peptide vs none"}, "[2]": {"details": "KDM5A1-797 WT (Table 3), no effector"}}, "note": "Where two headings read alike, the source gives them in different places.", "data": [{"substance": "Ac-H3K4me3 21mer: N-terminally acetylated 21mer H3K4me3 peptide, catalytic domain substrate", "values": [{"measurement": "change of kcat on addition of effector peptide", "setting": "[1]", "result": "kcat remains similar"}, {"measurement": "reduction in Km on addition of effector peptide", "setting": "[1]", "result": "fivefold"}, {"measurement": "kcat/Km", "setting": "+H3 10mer peptide (38 µM)", "result": "2430 ± 200", "unit": "M⁻¹ s⁻¹"}, {"measurement": "kcat", "setting": "+H3 10mer peptide (38 µM), 1 μM KDM5A, pH 7.5, room temperature", "result": "0.0408 ± 0.00067", "unit": "s⁻¹"}, {"measurement": "Km", "setting": "+H3 10mer peptide (38 µM), 1 μM KDM5A, pH 7.5, room temperature, read-out: Km", "result": "16.8 ± 1.1", "unit": "µM"}, {"measurement": "kcat/Km", "setting": "[2]", "result": "490 ± 55", "unit": "M⁻¹ s⁻¹"}, {"measurement": "kcat", "setting": "[2]", "result": "0.047 ± 0.0013", "unit": "s⁻¹"}, {"measurement": "Km", "setting": "KDM5A1-797 WT (Table 3), no effector, read-out: Km", "result": "95.5 ± 7.6", "unit": "µM"}, {"measurement": "kcat/Km", "setting": "No effector peptide", "result": "490 ± 55", "unit": "M⁻¹ s⁻¹"}, {"measurement": "kcat", "setting": "No effector peptide, 1 μM KDM5A, pH 7.5, room temperature", "result": "0.047 ± 0.001", "unit": "s⁻¹"}, {"measurement": "Km", "setting": "No effector peptide, 1 μM KDM5A, pH 7.5, room temperature, read-out: Km", "result": "95.5 ± 7.6", "unit": "µM"}]}, {"substance": "H3: unmodified N-terminal H3 tail 10mer peptide (H3 Ala1-Ser10), PHD1 effector ligand", "values": [{"measurement": "rank of Km reduction among effector peptides", "setting": "Ac-H3K4me3 21mer substrate, saturating effector peptide", "result": "highest reduction in Km"}, {"measurement": "Km", "setting": "Km of Ac-H3K4me3 21mer with saturating modified H3 10mer effector (20× Kd; H3K4me2 10× Kd), 1 μM KDM5A, 50 mM HEPES, 50 mM KCl, pH 7.5, room temperature, read-out: Demethylase activity Km with effector peptide (Fig. 4a)", "result": "16.8 ± 1.1", "unit": "µM"}]}]}
